According to patent publication US20260242735A1 (UNIVERSIT T BASEL, published 2026):

Legend:
Assay in all cases: alanine scan, flow cytometry, HEK293-T;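 also: antibody binding to each alanine-substituted CD33 mutant expressed transiently in HEK293-T, read as fluorescence minus background, mean of duplicates, relative to wild-type CD33 set as 100%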
human CD33 P203A = human CD33 P203A (human, UniProt P20138 18-364)
human CD33 I227A = human CD33 I227A (human, UniProt P20138 18-364)
human CD33 T192A = human CD33 T192A (human, UniProt P20138 18-364)
human CD33 T226A = human CD33 T226A (human, UniProt P20138 18-364)
human CD33 L187A = human CD33 L187A (human, UniProt P20138 18-364)
human CD33 P238A = human CD33 P238A (human, UniProt P20138 18-364)
human CD33 I176A = human CD33 I176A (human, UniProt P20138 18-364)
human CD33 T240A = human CD33 T240A (human, UniProt P20138 18-364)
human CD33 H193A = human CD33 H193A (human, UniProt P20138 18-364)
human CD33 G172A = human CD33 G172A (human, UniProt P20138 18-364)
human CD33 I198A = biological target: T1, human CD33 I198A (human, UniProt P20138 18-364)
T1 construct: the '-,' is not explained

human CD33 W179A = human CD33 W179A (human, UniProt P20138 18-364)
human CD33 L197A = human CD33 L197A (human, UniProt P20138 18-364)
human CD33 G207A = human CD33 G207A (human, UniProt P20138 18-364)
human CD33 Q171A = human CD33 Q171A (human, UniProt P20138 18-364)
human CD33 S186A = human CD33 S186A (human, UniProt P20138 18-364)
human CD33 S195A = human CD33 S195A (human, UniProt P20138 18-364)
human CD33 T253A = human CD33 T253A (human, UniProt P20138 18-364)
human CD33 N297A = human CD33 N297A (human, UniProt P20138 18-364)
human CD33 F243A = human CD33 F243A (human, UniProt P20138 18-364)
human CD33 T302A = human CD33 T302A (human, UniProt P20138 18-364)
human CD33 D246A = human CD33 D246A (human, UniProt P20138 18-364)
human CD33 C274A = human CD33 C274A (human, UniProt P20138 18-364)
human CD33 S307A = human CD33 S307A (human, UniProt P20138 18-364)
human CD33 R254A = human CD33 R254A (human, UniProt P20138 18-364)
human CD33 L270A = human CD33 L270A (human, UniProt P20138 18-364)
human CD33 K288A = human CD33 K288A (human, UniProt P20138 18-364)
human CD33 A290S = human CD33 A290S (human, UniProt P20138 18-364)
human CD33 H317A = human CD33 H317A (human, UniProt P20138 18-364)
human CD33 V267A = human CD33 V267A (human, UniProt P20138 18-364)
human CD33 L277A = human CD33 L277A (human, UniProt P20138 18-364)
human CD33 G256A = human CD33 G256A (human, UniProt P20138 18-364)
human CD33 K315A = human CD33 K315A (human, UniProt P20138 18-364)
human CD33 G247A = human CD33 G247A (human, UniProt P20138 18-364)
human CD33 K312A = human CD33 K312A (human, UniProt P20138 18-364)
human CD33 H259A = human CD33 H259A (human, UniProt P20138 18-364)

Chain of human CD33 L197A (P20138 18-364 L197A limits assumed): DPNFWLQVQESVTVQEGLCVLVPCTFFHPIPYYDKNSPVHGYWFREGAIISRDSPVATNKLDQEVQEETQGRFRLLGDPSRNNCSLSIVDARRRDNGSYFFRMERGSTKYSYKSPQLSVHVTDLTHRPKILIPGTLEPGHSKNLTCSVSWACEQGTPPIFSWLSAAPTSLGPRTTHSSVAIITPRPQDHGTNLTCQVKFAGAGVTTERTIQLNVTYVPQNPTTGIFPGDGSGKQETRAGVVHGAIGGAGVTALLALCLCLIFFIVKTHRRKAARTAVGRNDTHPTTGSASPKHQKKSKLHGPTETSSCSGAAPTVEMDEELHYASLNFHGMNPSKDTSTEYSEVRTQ
Chain of human CD33 I227A (P20138 18-364 I227A limits assumed): as the sequence (P20138 18-364 L197A limits assumed) above, with A180L, I210A counted along it
Chain of human CD33 S195A (P20138 18-364 S195A limits assumed): as the sequence (P20138 18-364 L197A limits assumed) above, with S178A, A180L counted along it
Chain of human CD33 T192A (P20138 18-364 T192A limits assumed): as the sequence (P20138 18-364 L197A limits assumed) above, with T175A, A180L counted along it
Chain of human CD33 T240A (P20138 18-364 T240A limits assumed): as the sequence (P20138 18-364 L197A limits assumed) above, with A180L, T223A counted along it
Chain of human CD33 L187A (P20138 18-364 L187A limits assumed): as the sequence (P20138 18-364 L197A limits assumed) above, with L170A, A180L counted along it
Chain of human CD33 Q171A (P20138 18-364 Q171A limits assumed): as the sequence (P20138 18-364 L197A limits assumed) above, with Q154A, A180L counted along it
Chain of human CD33 P238A (P20138 18-364 P238A limits assumed): as the sequence (P20138 18-364 L197A limits assumed) above, with A180L, P221A counted along it
Chain of human CD33 T226A (P20138 18-364 T226A limits assumed): as the sequence (P20138 18-364 L197A limits assumed) above, with A180L, T209A counted along it
Chain of human CD33 G172A (P20138 18-364 G172A limits assumed): as the sequence (P20138 18-364 L197A limits assumed) above, with G155A, A180L counted along it
T1 sequence (P20138 18-364 I198A limits assumed): as the sequence (P20138 18-364 L197A limits assumed) above, with A180L, I181A counted along it
Chain of human CD33 G207A (P20138 18-364 G207A limits assumed): as the sequence (P20138 18-364 L197A limits assumed) above, with A180L, G190A counted along it
Chain of human CD33 I176A (P20138 18-364 I176A limits assumed): as the sequence (P20138 18-364 L197A limits assumed) above, with I159A, A180L counted along it
Chain of human CD33 S186A (P20138 18-364 S186A limits assumed): as the sequence (P20138 18-364 L197A limits assumed) above, with S169A, A180L counted along it

B1: Refmab #4 (antibody, V domains shown)
VH: QVQLVQSGAEVKKPGESVKVSCKASGYTFTNYGMNWVKQAPGQGLEWMGWINTYTGEPTYADKFQGRVTMTTDTSTSTAYMEIRNLGGDDTAVYYCARWSWSDGYYVYFDYWGQGTSVTVSS
VL: DIVMTQSPDSLTVSLGERTTINCKSSQSVLDSSTNKNSLAWYQQKPGQPPKLLLSWASTRESGIPDRFSGSGSGTDFTLTIDSPQPEDSATYYCQQSAHFPITFGQGTRLEIK
notes: In the alanine scan antibodies were used as IgG or Fab
Mean % WT Binding (human CD33 P203A): 112%
Mean % WT Binding (human CD33 I227A): 78.7%
Mean % WT Binding (human CD33 T192A): 99.7%
Mean % WT Binding (human CD33 T226A): 91.9%
Mean % WT Binding (human CD33 L187A): 108%
Mean % WT Binding (human CD33 P238A): 117%
Mean % WT Binding (human CD33 I176A): 124%
Mean % WT Binding (human CD33 T240A): 76.8%
Mean % WT Binding (human CD33 H193A): 103%
Mean % WT Binding (human CD33 G172A): 90.7%
Mean % WT Binding (human CD33 I198A): 94.4%
Mean % WT Binding (human CD33 W179A): 83.1%
Mean % WT Binding (human CD33 L197A): 95.3%
Mean % WT Binding (human CD33 G207A): 87.1%
Mean % WT Binding (human CD33 Q171A): 102%
Mean % WT Binding (human CD33 S186A): 121%
Mean % WT Binding (human CD33 S195A): 112%

B2: Refmab #2 (antibody, V domains shown)
VH: QVQLVQSGAEVKKPGSSVKVSCKASGGTFSDYAISWVRQAPGQGLEWMGRIIPILGVADYAQKFQGRVTITADKSTRTAYMELSSLRSEDTAVYYCARNWADAFDIWGQGTMVTVSS
VL: DIQLTQSPSSLSASVGDRVTITCRASQGISSVLAWYQQKPGKAPKLLIYDASSLESGVPSRFSGSGSGTDFTLTISSLQPEDFATYYCQQFDSSITFGQGTKLEIK
notes: as for B1
Mean % WT Binding (human CD33 P203A): 109%
Mean % WT Binding (human CD33 I227A): 110%
Mean % WT Binding (human CD33 T192A): 119%
Mean % WT Binding (human CD33 T226A): 112%
Mean % WT Binding (human CD33 L187A): 144%
Mean % WT Binding (human CD33 P238A): 119%
Mean % WT Binding (human CD33 I176A): 124%
Mean % WT Binding (human CD33 T240A): 111%
Mean % WT Binding (human CD33 H193A): 122%
Mean % WT Binding (human CD33 G172A): 109%
Mean % WT Binding (human CD33 I198A): 114%
Mean % WT Binding (human CD33 W179A): 113%
Mean % WT Binding (human CD33 L197A): 125%
Mean % WT Binding (human CD33 G207A): 109%
Mean % WT Binding (human CD33 Q171A): 90%
Mean % WT Binding (human CD33 S186A): 120%
Mean % WT Binding (human CD33 S195A): 119%

B3: Refmab #2 (antibody, V domains shown)
VH: QVQLVQSGAEVKKPGSSVKVSCKASGGTFSDYAISWVRQAPGQGLEWMGRIIPILGVADYAQKFQGRVTITADKSTRTAYMELSSLRSEDTAVYYCARNWADAFDIWGQGTMVTVSS
VL: DIQLTQSPSSLSASVGDRVTITCRASQGISSVLAWYQQKPGKAPKLLIYDASSLESGVPSRFSGSGSGTDFTLTISSLQPEDFATYYCQQFDSSITFGQGTKLEIK
notes: The alanine scan used IgG or Fab
Mean % WT Binding (human CD33 T253A): 104 % WT binding
Mean % WT Binding (human CD33 N297A): 108 % WT binding
Mean % WT Binding (human CD33 F243A): 102 % WT binding
Mean % WT Binding (human CD33 T302A): 90.7 % WT binding
Mean % WT Binding (human CD33 D246A): 114 % WT binding
Mean % WT Binding (human CD33 C274A): 117 % WT binding
Mean % WT Binding (human CD33 S307A): 112 % WT binding
Mean % WT Binding (human CD33 R254A): 118 % WT binding
Mean % WT Binding (human CD33 L270A): 119 % WT binding
Mean % WT Binding (human CD33 K288A): 108 % WT binding
Mean % WT Binding (human CD33 A290S): 120 % WT binding
Mean % WT Binding (human CD33 H317A): 99.8 % WT binding
Mean % WT Binding (human CD33 V267A): 114 % WT binding
Mean % WT Binding (human CD33 L277A): 117 % WT binding
Mean % WT Binding (human CD33 G256A): 117 % WT binding
Mean % WT Binding (human CD33 K315A): 111 % WT binding
Mean % WT Binding (human CD33 G247A): 110 % WT binding
Mean % WT Binding (human CD33 K312A): 110 % WT binding
Mean % WT Binding (human CD33 H259A): 109 % WT binding

B4: Refmab #1 (antibody, V domains shown)
VH: EVQLVQSGAEVKKPGSSVKVSCKASGYTITDSNIHWVRQAPGQSLEWIGYIYPYNGGTDYNQKFKNRATLTVDNPTNTAYMELSSLRSEDTAFYYCVNGNPWLAYWGQGTLVTVSS
VL: DIQLTQSPSTLSASVGDRVTITCRASESLDNYGIRFLTWFQQKPGKAPKLLMYAASNQGSGVPSRFSGSGSGTEFTLTISSLQPDDFATYYCQQTKEVPWSFGQGTKVEVK
notes: In the alanine scan antibodies were used as IgG or Fab; also called hP67.6
Mean % WT Binding (human CD33 P203A): 103%
Mean % WT Binding (human CD33 I227A): 86.7%
Mean % WT Binding (human CD33 T192A): 101%
Mean % WT Binding (human CD33 T226A): 92%
Mean % WT Binding (human CD33 L187A): 92.3%
Mean % WT Binding (human CD33 P238A): 101%
Mean % WT Binding (human CD33 I176A): 93.5%
Mean % WT Binding (human CD33 T240A): 111%
Mean % WT Binding (human CD33 H193A): 99.9%
Mean % WT Binding (human CD33 G172A): 86%
Mean % WT Binding (human CD33 I198A): 86.7%
Mean % WT Binding (human CD33 W179A): 93.5%
Mean % WT Binding (human CD33 L197A): 95.5%
Mean % WT Binding (human CD33 G207A): 94.1%
Mean % WT Binding (human CD33 Q171A): 90.8%
Mean % WT Binding (human CD33 S186A): 92.5%
Mean % WT Binding (human CD33 S195A): 86.9%

B5: Refmab #1 (antibody, V domains shown)
VH: EVQLVQSGAEVKKPGSSVKVSCKASGYTITDSNIHWVRQAPGQSLEWIGYIYPYNGGTDYNQKFKNRATLTVDNPTNTAYMELSSLRSEDTAFYYCVNGNPWLAYWGQGTLVTVSS
VL: DIQLTQSPSTLSASVGDRVTITCRASESLDNYGIRFLTWFQQKPGKAPKLLMYAASNQGSGVPSRFSGSGSGTEFTLTISSLQPDDFATYYCQQTKEVPWSFGQGTKVEVK
notes: The alanine scan used IgG or Fab; also called hP67.6
Mean % WT Binding (human CD33 T253A): 94.5 % WT binding
Mean % WT Binding (human CD33 N297A): 94.9 % WT binding
Mean % WT Binding (human CD33 F243A): 86.5 % WT binding
Mean % WT Binding (human CD33 T302A): 95 % WT binding
Mean % WT Binding (human CD33 D246A): 85.2 % WT binding
Mean % WT Binding (human CD33 C274A): 88.4 % WT binding
Mean % WT Binding (human CD33 S307A): 94.8 % WT binding
Mean % WT Binding (human CD33 R254A): 101 % WT binding
Mean % WT Binding (human CD33 L270A): 102 % WT binding
Mean % WT Binding (human CD33 K288A): 112 % WT binding
Mean % WT Binding (human CD33 A290S): 105 % WT binding
Mean % WT Binding (human CD33 H317A): 80.8 % WT binding
Mean % WT Binding (human CD33 V267A): 88.3 % WT binding
Mean % WT Binding (human CD33 L277A): 85.5 % WT binding
Mean % WT Binding (human CD33 G256A): 89.8 % WT binding
Mean % WT Binding (human CD33 K315A): 80.6 % WT binding
Mean % WT Binding (human CD33 G247A): 98.5 % WT binding
Mean % WT Binding (human CD33 K312A): 83.8 % WT binding
Mean % WT Binding (human CD33 H259A): 97.4 % WT binding

B6: Refmab #3 (antibody, V domains shown)
VH: QVQLVQSGAEVKKPGSSVKVSCKASGYTFTDYNMHWVRQAPGQGLEWIGYIYPYNGGTGYNQKFKSKATITADESTNTAYMELSSLRSEDTAVYYCARGRPAMDYWGQGTLVTVSS
VL: DIQMTQSPSSLSASVGDRVTITCRASESVDNYGISFMNWFQQKPGKAPKLLIYAASNQGSGVPSRFSGSGSGTDFTLTISSLQPDDFATYYCQQSKEVPWTFGQGTKVEIK
notes: as for B1
Mean % WT Binding (human CD33 P203A): 105%
Mean % WT Binding (human CD33 I227A): 127%
Mean % WT Binding (human CD33 T192A): 102%
Mean % WT Binding (human CD33 T226A): 100%
Mean % WT Binding (human CD33 L187A): 95.5%
Mean % WT Binding (human CD33 P238A): 122%
Mean % WT Binding (human CD33 I176A): 100%
Mean % WT Binding (human CD33 T240A): 97.9%
Mean % WT Binding (human CD33 H193A): 92%
Mean % WT Binding (human CD33 G172A): 107%
Mean % WT Binding (human CD33 I198A): 91.2%
Mean % WT Binding (human CD33 W179A): 103%
Mean % WT Binding (human CD33 L197A): 91.4%
Mean % WT Binding (human CD33 G207A): 105%
Mean % WT Binding (human CD33 Q171A): 138%
Mean % WT Binding (human CD33 S186A): 106%
Mean % WT Binding (human CD33 S195A): 95.2%
